Measured values from paper PMC6910952 (Nature Communications, 2019).
Positions count from the first letter of the chain named. Where “and” joins values, the source holds several entries; their conditions need not be identical. Equal values may be shown once. No end group written: not given here.

Key:
Assay in all cases: fluorescence polarisation; fluorescence anisotropy; 1 nM FlAsH-labeled His6-SUMO-yUfd1 peptide, His6-yNpl4^113–580 in two-fold dilution series; 25 °C; 50 mM Tris-HCl pH 8.0, 100 mM NaCl, 5 mM β-mercaptoethanol, 0.1 g/L BSA
Details in all cases: both partners purified
His6-yNpl4^113–580 M357A = target: T1, His6-yNpl4^113–580 M357A (Saccharomyces cerevisiae, UniProt P33755 113-580, M357A)
T1 construct: also called yNpl4 M357A; source: E. coli Rosetta (DE3), purified (Ni-NTA, Resource Q); not shown: His6, N-terminal, kept
T1 sequence (looked up): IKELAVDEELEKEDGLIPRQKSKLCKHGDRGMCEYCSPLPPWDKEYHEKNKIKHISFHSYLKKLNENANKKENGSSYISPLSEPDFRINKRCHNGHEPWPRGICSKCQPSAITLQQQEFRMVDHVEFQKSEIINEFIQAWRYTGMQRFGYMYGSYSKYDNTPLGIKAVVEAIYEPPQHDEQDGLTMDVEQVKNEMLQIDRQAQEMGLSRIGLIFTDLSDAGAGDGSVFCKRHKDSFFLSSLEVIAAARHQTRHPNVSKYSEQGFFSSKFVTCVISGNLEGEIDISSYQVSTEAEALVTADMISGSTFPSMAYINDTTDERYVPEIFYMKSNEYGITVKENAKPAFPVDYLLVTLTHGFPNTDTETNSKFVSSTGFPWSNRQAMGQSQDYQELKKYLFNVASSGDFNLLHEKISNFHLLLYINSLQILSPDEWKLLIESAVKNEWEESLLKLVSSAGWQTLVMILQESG

His6-yNpl4^113–580 = target: T2, His6-yNpl4^113–580 (Saccharomyces cerevisiae, UniProt P33755 113-580)
T2 construct: codon-optimized synthetic cDNA; also called WT; WT #1; source: E. coli Rosetta (DE3), purified (Ni-NTA, Resource Q); also in lysate, mixed with cells expressing GST-yUfd1 for co-purification; not shown: His6, N-terminal, kept
T2 sequence (looked up): T1 sequence (looked up) with A245M

His6-yNpl4^113–580 F326A = target: T3, His6-yNpl4^113–580 F326A (Saccharomyces cerevisiae, UniProt P33755 113-580, F326A)
T3 construct: also called yNpl4 F326A; source: E. coli Rosetta (DE3), purified (Ni-NTA, Resource Q); not shown: His6, N-terminal, kept
T3 sequence (looked up): T1 sequence (looked up) with F214A, A245M

His6-yNpl4^113–580 L353A = target: T4, His6-yNpl4^113–580 L353A (Saccharomyces cerevisiae, UniProt P33755 113-580, L353A)
T4 construct: also called yNpl4 L353A; source: E. coli Rosetta (DE3), purified (Ni-NTA, Resource Q); not shown: His6, N-terminal, kept
T4 sequence (looked up): T1 sequence (looked up) with L241A, A245M

Kd (His6-yNpl4^113–580 M357A): 164 nM
Kd (His6-yNpl4^113–580): 85.7 nM and 99.4 nM
Kd (His6-yNpl4^113–580 F326A): 257 nM
Kd (His6-yNpl4^113–580 L353A): 1380 nM
B1: FlAsH-labeled His6-SUMO-yUfd1^288–305-GWCCPGCC (peptide, UniProt P53044 288-305, looked up)
chain: {His6-SUMO}-EPAKLDLPEGQLFFGFPMGWCCPGCC
modifications: cysteine pairing not given here; also: FlAsH label bound to CCPGCC motif
notes: the assay methods print 280-305; also called yUfd1-FlAsH; yUfd1 WT; source: E. coli Rosetta (DE3) (pCold-SUMO), purified (Ni-NTA, Resource Q), labeled with FlAsH-EDT2; not shown: His6, N-terminal, kept; SUMO, N-terminal, kept
